For one substance, decrease of the ratio of bound RNAP II to nuclear Ago1 after siDicer results are on record in paper PMC3784563.

In this assay the target is Argonaute 1 (Ago1) (human (endogenous in PC-3, LNCaP, HCT116)) (UniProt Q9UL18). In words: co-IP; nuclear extracts from PC-3 cells; IP with anti-Ago1 (Wako 2A7) or anti-Ago2 (Wako 4G8), immunoblot for RNAP II; 10 mM Tris-HCl pH 8.0, 150 mM NaCl, 1 mM EDTA, 1 mM DTT, 0.1% NP-40, overnight at 4°C, protein G dynabeads; also done after transfection with siControl, siDicer or siDrosha (50 nM, 72 hrs). (In general: A western blot detects proteins with antibodies after separation by electrophoresis.)

Consider “RNA polymerase II (from UniProt P24928 1-1970) (complex)”, for which the decrease of the ratio of bound RNAP II to nuclear Ago1 after siDicer is 70%.
